Results from patent US12589164.

B1: membrane type serine protease 1 (MT-SP1) (protein)
chain: VVGGTDADEGEWPWQVSLHALGQGHICGASLISPNWLVSAAHCYIDDRGFRYSDPTQWTAFLGLHDQSQRSAPGVQERRLKRIISHPFFNDFTFDYDIALLELEKPAEYSSMVRPICLPDASHVFPAGKAIWVTGWGHTQYGGTGALILQKGEIRVINQTTCENLLPQQITPRMMCVGFLSGGVDSCQGDSGGPLSSVEADGRIFQAGVVSWGDGCAQRNKPGVYTRLPLFRDWIKENTGV
B2: MMP2 (protein)
chain: YNFFPRKPKWDKNQITYRIIGYTPDLDPETVDDAFARAFQVWSDVTPLRFSRIHDGEADIMINFGRWEHGDGYPFDGKDGLLAHAFAPGTGVGGDSHFDDDELWTLGEGQVVRVKYGNADGEYCKFPFLFNGKEYNSCTDTGRSDGFLWCSTTYNFEKDGKYGFCPHEALFTMGGNAEGQPCKFPFRFQGTSYDSCTTEGRTDGYRWCGTTEDYDRDKKYGFCPETAMSTVGGNSEGAPCVFPFTFLGNKYESCTSAGRSDGKMWCATTANYDDDRKWGFCPDQGYSLFLVAAHEFGHAMGLEHSQDPGALMAPIYTYTKNFRLSQDDIKGIQELYGASPDIDLGTGPTPTLGPVTPEICKQDIVFDGIAQIRGEIFFFKDRFIWRTVTPRDKPMGPLLVATFWPELPEKIDAVYEAPQEEKAVFFAGNEYWIYSASTLERGYPKPLTSLGLPPDVQRVDAAFNWSKNKKTYIFAGDKFWRYNEVKKKMDPGFPKLIADAWNAIPDNLDAVVDLQGGGHSYFFKGAYYLKLENQSLKSVKFGSIKSDWLGC

Key:
[1] = biological target: (MCA)-Ser-Pro-Trp-Gly-Leu-His-Gln-Ser-Arg-Gly-Lys (DNP)-D-Arg (SEQ ID NO: 663)
[2] = biological target: peptide probe with CM … (SEQ ID NO: 644)
[3] = biological target: peptide probe with CM … (SEQ ID NO: 639)
[4] = biological target: (MCA)-His-Gln-Ser-Arg-Ser-Gly-Pro-Trp-Gly-Leu-X1-Lys (DNP)-D-Arg (SEQ ID NO: 659) where X1 is absent
[5] = biological target: peptide probe with CM … (SEQ ID NO: 646)
[6] = biological target: (MCA)-Ser-Pro-Trp-Gly-Leu-His-Gln-Ser-Arg-Ser-Lys (DNP)-D-Arg (SEQ ID NO: 657)
[7] = biological target: peptide probe with CM … (SEQ ID NO: 641)
[8] = biological target: peptide probe with CM … (SEQ ID NO: 648)
[9] = biological target: peptide probe with CM … (SEQ ID NO: 642)
[10] = biological target: peptide probe with CM … (SEQ ID NO: 647)
[11] = biological target: peptide probe with CM … (SEQ ID NO: 643)
[12] = biological target: (MCA)-His-Gln-Ser-Arg-Ser-Ala-Ile-Ala-Leu-Gly-Ser-Lys (DNP)-D-Arg (SEQ ID NO: 655)
[13] = biological target: peptide probe with CM … (SEQ ID NO: 650)
[14] = biological target: (MCA)-His-Gln-Ser-Arg-Ser-Ala-Ile-Ala-Leu-X1-X2-Lys (DNP)-D-Arg (SEQ ID NO: 653) where X1 is Y and X2 is A
[15] = biological target: peptide probe with CM … (SEQ ID NO: 649)
[16] = biological target: peptide probe with CM … (SEQ ID NO: 645)
[17] = biological target: (MCA)-Ser-Pro-Trp-Gly-Leu-His-Gln-Ser-Lys-Ser-Lys (DNP)-D-Arg (SEQ ID NO: 664)
[18] = biological target: D-Arg-Lys (DNP)-Ala-Ile-Ala-Leu-His-Gln-Ser-Arg-Ser-Lys (MCA)-D-Arg (SEQ ID NO: 658)
[19] = biological target: (MCA)-His-Gln-Ser-Arg-Ser-Pro-Trp-Gly-Gly-Ser-Lys (DNP)-D-Arg (SEQ ID NO: 661)
[20] = biological target: (MCA)-His-Gln-Ser-Arg-Ser-Ala-Ile-Ala-Leu-X1-Gly-Lys (DNP)-D-Arg (SEQ ID NO: 654) where X1 is Y
[21] = biological target: (MCA)-His-Gln-Ser-Arg-Ser-Pro-Trp-Gly-Leu-Gly-Lys (DNP)-D-Arg (SEQ ID NO: 665)
[22] = biological target: (MCA)-His-Gln-Ser-Arg-Pro-Trp-Gly-Leu-Gly-Ser-Lys (DNP)-D-Arg (SEQ ID NO: 660)

| Protein | Probe Cleavage (pM/s) [1] [pM/s] | Probe Cleavage (pM/s) [2] [pM/s] | Probe Cleavage (pM/s) [3] [pM/s] | Probe Cleavage (pM/s) [4] [pM/s] | Probe Cleavage (pM/s) [5] | Probe Cleavage (pM/s) [6] [pM/s] | Probe Cleavage Kcat/KM [6] [M⁻¹ s⁻¹] | Probe Cleavage (pM/s) [7] | Probe Cleavage (pM/s) [8] [pM/s] | Probe Cleavage (pM/s) [9] [pM/s] | Probe Cleavage (pM/s) [10] | Probe Cleavage (pM/s) [11] [pM/s] | Probe Cleavage (pM/s) [12] | Probe Cleavage Kcat/KM [12] [M⁻¹ s⁻¹] | Probe Cleavage (pM/s) [13] [pM/s] | Probe Cleavage (pM/s) [14] [pM/s] | Probe Cleavage Kcat/KM [14] [M⁻¹ s⁻¹] | Probe Cleavage (pM/s) [15] [pM/s] | Probe Cleavage (pM/s) [16] [pM/s] | Probe Cleavage (pM/s) [17] [pM/s] | other results |
| --- | --- | --- | --- | --- | --- | --- | --- | --- | --- | --- | --- | --- | --- | --- | --- | --- | --- | --- | --- | --- | --- |
| B1 | 540 | 8 | 10800 | 9930 | Above limit of quantitation | 1280 | 28000 | Above limit of quantitation | 4120 | 1860 | Above limit of quantitation | 11300 | Above limit of quantitation | 510000 | 7920 | 1750 | 630000 | 7780 | 7330 | 1630 | Probe Cleavage (pM/s) [18]: 11500 pM/s; Probe Cleavage Kcat/KM [18]: 55000 M⁻¹ s⁻¹; Probe Cleavage (pM/s) [19]: 3470 pM/s; Probe Cleavage (pM/s) [20]: 1960 pM/s; Probe Cleavage Kcat/KM [20]: 790000 M⁻¹ s⁻¹; Probe Cleavage (pM/s) [21]: 1210 pM/s; Probe Cleavage Kcat/KM [21]: 35000 M⁻¹ s⁻¹; Probe Cleavage (pM/s) [22]: 32 pM/s |
| B2 | 6840 | 696 | 17600 | 94.8 | 1390 pM/s | 2550 | 54000 | 726 pM/s | 488 | 692 | 65.4 pM/s | 623 | 76.9 pM/s | 4900 | 410 | 468 | 29000 | 61.1 | 594 | 6640 | Probe Cleavage (pM/s) [18]: 4220 pM/s; Probe Cleavage Kcat/KM [18]: 17000 M⁻¹ s⁻¹; Probe Cleavage (pM/s) [19]: 61.6 pM/s; Probe Cleavage (pM/s) [20]: 434 pM/s; Probe Cleavage Kcat/KM [20]: 67000 M⁻¹ s⁻¹; Probe Cleavage (pM/s) [21]: 44.2 pM/s; Probe Cleavage (pM/s) [22]: 4020 pM/s |
